Results published in patent publication US20170002094A1 (Takeda / Millennium, published 2017).
Read-outs that look alike come from different tables or passages of the source.

B1: DX-2930 (antibody, human IgG1, kappa, V domains shown)
VH: EVQLLESGGGLVQPGGSLRLSCAASGFTFSHYIMMWVRQAPGKGLEWVSGIYSSGGITVYADSVKGRFTISRDNSKNTLYLQMNSLRAEDTAVYYCAYRRIGVPRRDEFDIWGQGTMVTVSS
VL: DIQMTQSPSTLSASVGDRVTITCRASQSISSWLAWYQQKPGKAPKLLIYKASTLESGVPSRFSGSGSGTEFTLTISSLQPDDFATYYCQQYNTYWTFGQGTKVEIKR

Tests used:
[1] = target: T1, human plasma kallikrein (active form) (human, UniProt P03952 20-638)
[2] = target: T1, human plasma kallikrein (active form); assay: cell-based or functional assay

T1 sequence (P03952 20-638 limits assumed): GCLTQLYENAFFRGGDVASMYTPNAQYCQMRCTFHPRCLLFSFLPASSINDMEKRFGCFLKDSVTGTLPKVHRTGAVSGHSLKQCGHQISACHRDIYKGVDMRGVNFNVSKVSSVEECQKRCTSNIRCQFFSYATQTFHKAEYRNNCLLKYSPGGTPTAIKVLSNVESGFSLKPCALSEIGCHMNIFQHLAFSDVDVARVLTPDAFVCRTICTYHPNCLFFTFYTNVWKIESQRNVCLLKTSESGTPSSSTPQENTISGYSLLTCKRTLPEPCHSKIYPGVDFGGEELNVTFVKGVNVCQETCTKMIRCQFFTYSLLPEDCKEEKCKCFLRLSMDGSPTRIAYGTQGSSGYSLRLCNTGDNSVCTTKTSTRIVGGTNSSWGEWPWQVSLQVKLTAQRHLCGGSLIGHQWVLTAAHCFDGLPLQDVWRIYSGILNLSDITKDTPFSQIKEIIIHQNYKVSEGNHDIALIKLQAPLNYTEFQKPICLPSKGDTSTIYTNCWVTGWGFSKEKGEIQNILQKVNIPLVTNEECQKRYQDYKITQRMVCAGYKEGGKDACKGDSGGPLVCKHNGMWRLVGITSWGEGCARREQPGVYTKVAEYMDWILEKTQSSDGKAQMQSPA

| Molecule | IC50 (read off the curve) [1] | IC50 (read off the curve) [2] |
| --- | --- | --- |
| ecallantide (designed binder) | 70 nM |  |
| B1 |  | ~70 nM |
